Measurements: patent publication US10766960 (dated 2020)
Positions count from the first letter of the chain named. Names may count otherwise. “And” between values parts separate entries of the source, which are not always exact repeats. Equal entries are not always repeated. Where two headings read alike, the source gives them in different places. Blank lines part the entries; values can stand above or below the binder they belong to.

Legend:
Test in all cases: SPR
FcgRIIIa F [1] = target: T1, FcgRIIIa F (human, UniProt P08637)
FcgRIIb [2] = target: T2, FcgRIIb (human, UniProt P31994)
T2 chain: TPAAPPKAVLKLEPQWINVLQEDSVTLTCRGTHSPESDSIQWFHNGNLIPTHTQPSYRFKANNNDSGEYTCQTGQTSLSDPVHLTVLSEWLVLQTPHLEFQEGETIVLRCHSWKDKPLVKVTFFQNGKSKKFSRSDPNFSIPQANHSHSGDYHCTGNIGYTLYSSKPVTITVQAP

FcgRIIa H [3] = target: T3, FcgRIIa H (human, UniProt P12318)
T3 chain: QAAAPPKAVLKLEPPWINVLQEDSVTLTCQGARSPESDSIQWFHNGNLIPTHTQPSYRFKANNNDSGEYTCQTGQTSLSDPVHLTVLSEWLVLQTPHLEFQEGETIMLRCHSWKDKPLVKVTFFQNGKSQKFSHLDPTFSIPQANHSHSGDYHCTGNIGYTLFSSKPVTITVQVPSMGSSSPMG

FcgRIIa R [4] = target: T4, FcgRIIa R (human, UniProt P12318)
T4 chain: T3 chain with H134R

FcgRIIa R [5] = target: T4, FcgRIIa R
FcgRIIIa F [6] = target: T1, FcgRIIIa F; remark: listed apart in the source
FcgRIIIa V [7] = target: T5, FcgRIIIa V (human, UniProt P08637)
FcgRIIb [8] = target: T2, FcgRIIb
FcgRIIIa V [9] = target: T5, FcgRIIIa V; remark: listed apart in the source
FcgRIIa H [10] = target: T3, FcgRIIa H
FcgRIa [11] = target: T6, FcgRIa (human, UniProt P12314)
T6 chain: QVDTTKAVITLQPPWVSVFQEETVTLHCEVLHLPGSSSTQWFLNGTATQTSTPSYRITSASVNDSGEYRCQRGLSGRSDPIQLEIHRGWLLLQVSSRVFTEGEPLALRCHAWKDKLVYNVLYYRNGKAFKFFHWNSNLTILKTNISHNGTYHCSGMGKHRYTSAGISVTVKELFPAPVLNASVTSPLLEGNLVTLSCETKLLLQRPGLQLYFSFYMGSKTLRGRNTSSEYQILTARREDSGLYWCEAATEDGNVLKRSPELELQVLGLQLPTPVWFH

FcgRIa [12] = target: T6, FcgRIa
FcgRIIIa F [13] = target: T1, FcgRIIIa F; remark: listed apart in the source
FcgRIIIa V [14] = target: T5, FcgRIIIa V; remark: listed apart in the source
FcgRIIIa F [15] = target: T1, FcgRIIIa F; remark: listed apart in the source

T5 sequence (P08637 17-208 F176V): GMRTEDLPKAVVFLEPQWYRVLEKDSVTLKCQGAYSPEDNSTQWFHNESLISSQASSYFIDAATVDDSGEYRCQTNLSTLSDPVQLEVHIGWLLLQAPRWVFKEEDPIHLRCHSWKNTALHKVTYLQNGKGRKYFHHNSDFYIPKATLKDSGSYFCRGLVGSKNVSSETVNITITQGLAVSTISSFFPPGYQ
T1 sequence (P08637 17-208): as the sequence (P08637 17-208 F176V) above, with V160F counted along it

B1: H240-AK072/H240-BH076/L73-k0 (antibody)
chain 1: QDQLVQSGAEVKKPGASVKVSCKASGFNIKDTYIQWVRQAPGQGLEWMGRIDPLRKQTKYREKFEGRVTITADTSTNTAYMELSSLRSEDTAVYYCVRSGREFDYWGQGTLVTVSSASTKGPSVFPLAPSSKSTSGGTAALGCLVKDYFPEPVTVSWNSGALTSGVHTFPAVLQSSGLYSLSSVVTVPSSSLGTQTYICNVNHKPSNTKVDKKVEPKSCDKTHTCPPCPAPEYYWGPSVFLFPPKPKDTLMISRTPEVTCVVVDVSDEEPEVKFNWYVDGVEVHNAKTKPREEQYNATYRVVSVLTVLHQDWLNGKEYKCKVSNKALPAPIEKTISKAKGQPREPQVYTLPPSRKEMTKNQVSLTCLVKGFYPSDIAVEWESNGQPENNYKTTPPVLDSDGSFFLYSKLTVDKSRWQQGNVFSCSVMHEALHNRYTQKSLSLSP
chain 2: QDQLVQSGAEVKKPGASVKVSCKASGFNIKDTYIQWVRQAPGQGLEWMGRIDPLRKQTKYREKFEGRVTITADTSTNTAYMELSSLRSEDTAVYYCVRSGREFDYWGQGTLVTVSSASTKGPSVFPLAPSSKSTSGGTAALGCLVKDYFPEPVTVSWNSGALTSGVHTFPAVLQSSGLYSLSSVVTVPSSSLGTQTYICNVNHKPSNTKVDKKVEPKSCDKTHTCPPCPAPELLGGPSVFLFPPKPKDTLMISRTPEVTCVVVDVSHEEPEVKFNWYVDGVEVHNAKTKPREEQYNSTYRVVSVLTVLHQDWLNGKEYKCKVSNDALPMPIEETISKAKGQPREPQVYTLPPSREEMTKNQVSLTCLVKGFYPSDIAVEWESNGQPENNYKTTPPVLDSDGSFFLYSKLTVDKSRWQQGNVFSCSVMHEALHNHYTQESLSLSP
chain 3: DIQMTQSPSSLSASVGDRVTITCRASQDIHKYIAWYQQKPGQAPRLLIQYTSTLQPGVPSRFSGSGSGTDYTFTISSLQPEDIATYYCLQYEQLRTFGGGTKVEIKRTVAAPSVFIFPPSDEQLKSGTASVVCLLNNFYPREAKVQWKVDNALQSGNSQESVTEQDSKDSTYSLSSTLTLSKADYEKHKVYACEVTHQGLSSPVTKSFNRGEC
Kd (FcgRIIIa F [1]): 3.7 nM
Kd (FcgRIIb [2]): 1300 nM and 1400 nM and 1500 nM
Kd (FcgRIIa H [3]): 130 nM
Kd (FcgRIIa R [4]): 240 nM and 280 nM
Kd (FcgRIIa R [5]): 460 nM
Kd (FcgRIIIa F [6]): 3.7 nM and 2.9 nM
Kd (FcgRIIIa V [7]): 0.98 nM
Kd (FcgRIIb [8]): 2900 nM
Kd (FcgRIIIa V [9]): 0.99 nM and 1.2 nM
Kd (FcgRIIa H [10]): 79 nM and 72 nM and 69 nM
Kd (FcgRIa [11]): 0.11 nM and 0.12 nM
Kd (FcgRIa [12]): 0.24 nM

B2: H240-BH076/L73-k0 (antibody)
chain 1: B1 chain 2
chain 2: B1 chain 3
Kd (FcgRIIIa F [13]): 26 nM
Kd (FcgRIIIa V [14]): 5.3 nM

B3: H240-AK072/L73-k0 (antibody)
chain 1: B1 chain 1
chain 2: B1 chain 3
Kd (FcgRIIIa F [13]): 300 nM
Kd (FcgRIIIa V [14]): 29 nM

B4: H240-A5E/H240-B3E/L73-k0 (antibody)
chain 1: not shown
chain 2: not shown
chain 3: B1 chain 3
Kd (FcgRIIIa F [1]): 1600 nM
Kd (FcgRIIa H [3]): 910 nM
Kd (FcgRIIa R [5]): 940 nM
Kd (FcgRIIIa V [7]): 330 nM
Kd (FcgRIIb [8]): 4300 nM
Kd (FcgRIa [12]): 0.61 nM

Now from value to binder:

Kd (FcgRIIIa F [15]): 1 nM
B5: GpH7-TA54/GpH7-B78/GpL16-k0 (antibody)
chain 1: QVQLVQSGAEVKKPGASVTVSCKASGYTFTDYEMHWIRQPPGEGLEWIGAIDPKTGDTAYSESFQDRVTLTADKSTSTAYMELSSLTSEDTAVYYCTRFYSYTYWGQGTLVTVSSASTKGPSVFPLAPSSKSTSGGTAALGCLVKDYFPEPVTVSWNSGALTSGVHTFPAVLQSSGLYSLSSVVTVPSSSLGTQTYICNVNHKPSNTKVDKKVEPKSCDKTHTCPPCPAPEYLWGPDVFLFPPKPKDTLMISRTPEVTCVVVDVSHEDPEVKFNWYVDGVEVHNAKTKPREEQWNATYRVVSVLTVLHQDWLNGKEYKCKVSNKALPAPIEKTISKAKGQPREPQVYTLPPSRKELTKNQVSLTCLVKGFYPSDIAVEWESNGQPENNYKTTPPVLDSDGSFFLYSKLTVDKSRWQQGNVFSCSVMHEALHNRYTQKSLSLSP
chain 2: B5 chain 1 with Y232L, W234G, W294Y, A296S, A328L, I330E, K354D, R433H, K437E
chain 3: DIVMTQSPLSLPVTPGEPASISCQASESLVHSNRNTYLHWYLQKPGQSPQLLIYKVSNRFSGVPDRFSGSGSGTDFTLKISRVEAEDVGVYYCSQNTHVPPTFGQGTKVEIERTVAAPSVFIFPPSDEQLKSGTASVVCLLNNFYPREAKVQWKVDNALQSGNSQESVTEQDSKDSTYSLSSTLTLSKADYEKHKVYACEVTHQGLSSPVTKSFNRGEC

Kd (FcgRIIIa F [15]): 1.3 nM
B6: GpH7-TA22/GpH7-TA58/GpL16-k0 (antibody)
chain 1: B5 chain 1 with W294Y
chain 2: B5 chain 1 with Y232L, W234G, A296S, A328L, I330E, K354D, R433H, K437E
chain 3: B5 chain 3
